Results from the RNAGym collection of RNA variant scans (doi:10.1073/pnas.2313332121).

B1: TPR t1 (parent)
chain: GACCAAUCUGCCCUCAGAGCUCGAGAACAUCUUCGGAUGCAGAGGAGGCAGGCUUCGGUGGCGCGAUAGCGCCAACGUCCUCAACCUCCAAUGCAUCCCACCACAUGAUGAUGCCUGAAGAGCCUUGGUUUUUUG

Variants of: B1
Experiment: polymerase ribozyme fitness, log enrichment relative to wild type (log ratio); higher = more active; in vitro selection for triplet polymerase activity
Procedure, shortened: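 Mutant libraries for each subunit of a heterodimeric triplet polymerase ribozyme were made by PCR and then transcribed. Each library underwent one round of in vitro selection in triplicate: annealing with a biotinylated primer, the partner subunit and triplets, frozen incubation at −7 °C, gel excision of extended constructs, streptavidin-bead capture and RT-PCR. Input and output libraries were Illumina-sequenced, and only genotypes with ≥10 input reads and ≥1 read per output were kept. Fitness is the logarithm, base 2, of genotype enrichment over wild-type enrichment, computed from inverse-variance-weighted replicate averages.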

Row | Variant | polymerase ribozyme fitness (log ratio)
1 | C8G G10A A16C A95U G122U | -0.858
2 | A16U G58U C123A | -2.18
3 | A18G G36A U116C A118G | -2.17
4 | C40A | -1.28
5 | G47U G57U G93U | -3.51
6 | C98U C104U U112A | -2.26
7 | G10A C79A C123U | 1.23
8 | C12U A50G C56A C85G | -1.73
9 | A5U A66U A75G C76A C94A G120A U130G | -5.41
10 | G44C A95C | -2.1
11 | A29C C70U | -2.29
12 | G23A G77C G120C | -6.71
13 | G39C C72U U129G | -2.2
14 | G10A C13U G42C A46G C101U G110C | -6.91
15 | A83C G120A | 0.209
16 | A83G C97U U109A | -5.36
17 | C15U G17C A121C | -2.22
18 | C94G A100U G120A | -0.669
19 | U54A C70G C88U | -3.24
20 | C70U C82G A118G | -1.41
21 | C13G U87C A121C | 0.326

Row | Variant | polymerase ribozyme fitness (log ratio)
22 | A26C A29G U112G | -7.05
23 | C3A A83C C97U G110A | -3.93
24 | U87A A105U | -1.78
25 | C94U A100G G120U | -3.95
26 | C3U C20A A46G C72G G113U | -0.27
27 | C8G G52C C62U C89U | -1.08
28 | C101U A105C C114A | -6.11
29 | C8A C12G G39C G63C U78G G117U | -2.3
30 | C62U A108G | -1.69
31 | G10U C72U C80U | -0.683
32 | A46U G60A C80A A121G | -1.19
33 | G10A C73A | -0.58
34 | C20G G36A A43C U96G G117C | -5.42
35 | C13A G61A C89A | -3.18
36 | A18G U92C C104U G117U C123A | -2.56
37 | A43G G77A A83C C88G A121U G128U | -5.57
38 | A84C C98A C114G U116C | -4.74
39 | U7C C34A G44C A84U | -4.89
40 | C22G C72U U96C C114G C123U G127U | -7.69
41 | A29G C124A | 0.584
42 | C72U C94G A95G C123U | -0.867

Row | Variant | polymerase ribozyme fitness (log ratio)
43 | A37C G60A C76G | -2.7
44 | A43G C114G | -3.66
45 | G47U A50U U54A | -2.42
46 | G57C G120U C124U | 0.197
47 | C11U U78A C97A | -5.69
48 | A46U A74U G113A | -1.99
49 | G71U G117A U130C | -1.71
50 | C88G C97A C104U | -5.23
51 | A29G A118U | -0.684
52 | U9G A37U A43U C73A C98A C124A | -7.17
53 | C12A G110A C123U | -1.84
54 | A74C G110A | -1.2
55 | U55C G69C C76U C89A A121U U125G | -4.56
56 | G48U A50U A68G C89G U106A U116C C124U | -5.48
57 | A16C G117U A121C | -4.48
58 | C62G U129A | -3.98
59 | G77C C89G G122U C123U | -1.58
60 | U7G G48U C53U A95C G117A | -1.11
61 | G61C G65A C82U | -7.8
62 | C62U C76U | -0.133
63 | G45U C114G | -3.8

Row | Variant | polymerase ribozyme fitness (log ratio)
64 | C28U A37C C76G | -3.54
65 | U7A C62U U129A | -0.65
66 | C11G A41G C73G | -0.55
67 | C20U G57A U78C | -3.25
68 | C88U G113C | -2.8
69 | A18U C40U | -3.83
70 | U55C C70A C97U U116A | -4.83
71 | U106C G107U | -4.63
72 | G45U C62U U112G U126A G128A U130A | -3.11
73 | G45A G61A G110U U125C | -0.661
74 | C15A C40U U87C G93C | -3.02
75 | A5G G10A C72A A91U | -1.75
76 | G60A G69U | -0.576
77 | G39U G61A C72G A103U | -5.55
78 | A2C G71U G93A U109A G120C | -6.66
79 | G17U C114U U125A | -5.53
80 | A24G G63U G113U | -6.59
81 | C49U U54A U92C G120C G128A | -4.05
82 | C53G C73U G113C A121C | -2.12
83 | C28U C56A | -1.65
